The subject of assay [1] is cytoplasmic condensates (SINCs). As to the kind of experiment: Confocal imaging of localization and condensate (body) formation of GFP-fused NPR proteins and variants. Particulars: for SA-induced cytoplasmic body/condensate (SINC) formation: 5 mM SA for 2 hr. It counts as cell-based, Nicotiana benthamiana. The procedure: (§1) Plant transformation: For plant transformations, the Agrobacterium tumefaciens strain GV3101 was transformed with plant binary vectors carrying the indicated transgenes. For stable expression in Arabidopsis, a floral dipping method was used. For transient expression in N benthamiana, the Agrobacterium carrying the indicated construct was cultured overnight at 28° C. in Luria-Bertani (LB) broth medium supplemented with appropriate antibiotics: spectinomycin (100 μg/ml), kanamycin (50 μg/ml), gentamycin (50 μg/ml), and rifampicin (25 μg/ml). The obtained culture was re-inoculated at 1:10 into fresh growth media with antibiotics and grown for another 4 hr. Cells were then spun down at 1,600 g for 10 min, and inoculum was prepared by resuspending cells to OD600 nm=1 in double distilled water (DDW) containing 200 μM acetosyringone (Sigma). Unless otherwise stated, for co-IP, co-localization, and BiFC assays in N. benthamiana, the proteins were co-expressed at 1:1 mixture of the relevant Agrobacteria inoculums. In all BiFC assays, the pair of YN/YC fusions was co-expressed together with free mCherry to mark the cytoplasm and nucleus, mCherry-NLS to mark the nucleus only, or mCherry-fused test proteins for co-localization analysis. The inoculum was pressure infiltrated into N. benthamiana leaves at the abaxial side using 1 ml syringe without the needle. Due to low overall levels of NPR1-GFP in transgenic plants, a transient expression assay in Arabidopsis seedlings was used to monitor NPR1-GFP subcellular localization after SA treatment (FIG. 2B). To limit the imaging time in this transient assay (2 hours), a higher baseline SA concentration had to be used. Seeds of WT (Col-0) Arabidopsis were germinated on solid half-strength Murashige and Skoog (1/2 MS) medium and grown for 4 days. Agrobacterium carrying the indicated constructs was grown overnight in LB medium supplemented with appropriate antibiotics. The obtained culture was re-inoculated at 1:10 into virulence induction medium [50.78 mM MES, 0.5% Glucose, 1.734 mM NaH2PO4, 5% of 20X-AB mix (373.9 mM NH4C1, 24.34 mM MgSO4, 40.23 mM KCl, 1.36 mM CaCl2 and 0.18 mM FeSO4·7H2O), 200 μM acetosyringone] supplemented with 25 μg/ml rifampicin and grown for another 24 hr at 28° C. to OD600=0.8 (inoculum). Seedlings were vacuum-infiltrated with the inoculum, and at 48 hpi (hours post inoculation), treatments were performed by submerging the transformed seedlings in water or SA solution at indicated concentrations for 2 hr. Entire cotyledons were sampled for microscopy.
Confocal laser scanning microscopy. Unless otherwise indicated, all imaging data and micrographs for single protein imaging, co-localizations, BiFC and time-lapse were obtained from the transient expression in N. benthamiana using the relevant Agrobacteria strains. All imaging was done with confocal laser scanning fluorescence microscopy using Zeiss 880 airyscan inverted confocal microscope with a 40×/1.2 water correction objective. GFP (eGFP) was excited with a 488 nm argon laser and emission was collected with a 505-530 nm band pass filter. YFP was excited with an argon laser using a 514 nm beam splitter, and emission was detected with a 520-555 nm band pass filter. mCherry was excited with a 561 nm diode laser, and emission was detected with a 575-615 nm band pass filter. When eGFP/YFP were imaged together with mCherry, a spectral GASP detector was used to collect emission from eGFP/YFP. Propidium iodide (PI) was excited with 488 nm argon laser and emission was detected with a 590-620 nm band pass filter. Time-lapse imaging was carried out on live leaf tissue samples from N. benthamiana plants transiently expressing the protein of interest. Image acquisition was done in 5 min intervals for the duration of 2 hr by scanning 30 consecutive focal planes along the Z-axis covering the entire thickness of an epidermal cell. Z-projection was done to each time frame stack before composing a final time-lapse file. […]

The next assay concerns CUL3. The assay is described as follows: Co-IP of Myc-CUL3 with HA-fused NPR1 or variants. Format: binding, Arabidopsis thaliana. Here is the method: as §1
Protein analysis and IP. Recombinant protein analysis was performed using transient expression in N. benthamiana, or stable over-expression in transgenic Arabidopsis, or expression in E. coli. Total protein extraction from plants was performed by homogenizing leaf tissue in the plant extraction buffer [50 mM Tris-HCl (pH 7.5), 150 mM NaCl, 5 mM EDTA, 0.2% Triton X-100, 0.2% Nonidet P-40] supplemented with 1 mM PMSF, 100 μM MG132, and EDTA-free protease inhibitor cocktail (Roche). For ubiquitinated protein analysis in plants, 100 μM of DUB (deubiquitinase) inhibitor (LifeSensors) and 10 mM NEM were added. Next, the lysates were cleared by centrifugation at 14,000 rpm for 15 min followed by filtering through a 0.2 μm filter. […] Pull-downs or IP experiments were done on total protein extracts by incubating protein samples in the lysis buffer overnight with indicated affinity tag or antibody conjugated to agarose or magnetic beads: GFP-trap agarose beads (Chromotek) for GFP fusions; RFP-trap agarose beads (Chromotek) for mCherry fusions; anti-HA magnetic beads (ThermoFisher) for HA tag fusions; anti-DYKDDDDK coupled magnetic agarose (ThermoFisher) for FLAG tag fusions; and glutathione magnetic agarose (ThermoFisher) for GST fusions. Unless otherwise indicated, after pull-down/IP, beads were washed 3 times and proteins were eluted by boiling in the 2×SDS sample buffer. […]

B1: NPR2: Arabidopsis NPR1 paralog AtNPR2 (AT4G26120) (protein, UniProt Q9SZI3 1-600, looked up)
Regulatory protein NPR2: MATTTTTTTARFSDSYEFSNTSGNSFFAAESSLDYPTEFLTPPEVSALKLLSNCLESVFDSPETFYSDAKLVLAGGREVSFHRCILSARIPVFKSALATVKEQKSSTTVKLQLKEIARDYEVGFDSVVAVLAYVYSGRVRSPPKGASACVDDDCCHVACRSKVDFMVEVLYLSFVFQIQELVTLYERQFLEIVDKVVVEDILVIFKLDTLCGTTYKKLLDRCIEIIVKSDIELVSLEKSLPQHIFKQIIDIREALCLEPPKLERHVKNIYKALDSDDVELVKMLLLEGHTNLDEAYALHFAIAHCAVKTAYDLLELELADVNLRNPRGYTVLHVAAMRKEPKLIISLLMKGANILDTTLDGRTALVIVKRLTKADDYKTSTEDGTPSLKGGLCIEVLEHEQKLEYLSPIEASLSLPVTPEELRMRLLYYENRVALARLLFPVETETVQGIAKLEETCEFTASSLEPDHHIGEKRTSLDLNMAPFQIHEKHLSRLRALCKTVELGKRYFKRCSLDHFMDTEDLNHLASVEEDTPEKRLQKKQRYMELQETLMKTFSEDKEECGKSSTPKPTSAVRSNRKLSHRRLKVDKRDFLKRPYGNGD
For the molecule B1, the “SA-induced cytoplasmic body/condensate (SINC) formation” value (from here on “SA-induced cytoplasmic body/condensate”) in assay [1] was “fail to form cytoplasmic condensates”.

B2: NPR3: Arabidopsis NPR1 paralog AtNPR3 (AT5G45110) (protein, UniProt Q8L746 1-586, looked up)
Regulatory protein NPR3: MATLTEPSSSLSFTSSHFSYGSIGSNHFSSSSASNPEVVSLTKLSSNLEQLLSNSDCDYSDAEIIVDGVPVGVHRCILAARSKFFQDLFKKEKKISKTEKPKYQLREMLPYGAVAHEAFLYFLSYIYTGRLKPFPLEVSTCVDPVCSHDCCRPAIDFVVQLMYASSVLQVPELVSSFQRRLCNFVEKTLVENVLPILMVAFNCKLTQLLDQCIERVARSDLYRFCIEKEVPPEVAEKIKQLRLISPQDEETSPKISEKLLERIGKILKALDSDDVELVKLLLTESDITLDQANGLHYSVVYSDPKVVAEILALDMGDVNYRNSRGYTVLHFAAMRREPSIIISLIDKGANASEFTSDGRSAVNILRRLTNPKDYHTKTAKGRESSKARLCIDILEREIRKNPMVLDTPMCSISMPEDLQMRLLYLEKRVGLAQLFFPTEAKVAMDIGNVEGTSEFTGLSPPSSGLTGNLSQVDLNETPHMQTQRLLTRMVALMKTVETGRRFFPYGSEVLDKYMAEYIDDDILDDFHFEKGSTHERRLKRMRYRELKDDVQKAYSKDKESKIARSCLSASSSPSSSSIRDDLHNTT
Turning to B2, in assay [1], the “SA-induced cytoplasmic body/condensate” value is listed as “fail to form cytoplasmic condensates”.

B3: BTB: BTB domain of NPR1 corresponding to amino acids 65-144 of SEQ ID NO: 1 (protein, listed as Arabidopsis thaliana)
chain: SDAKLVLSDGREVSFHRCVLSARSSFFKSALAAAKKEKDSNNTAAVKLELKEIAKDYEVGFDSVVTVLAYVYSSRVRPPP
As to B3, in the assay with CUL3 (absence of SA), the “CUL3 pull-down in co-IP in the absence of SA” value was “sufficient to strongly pulldown CUL3 even in the absence of SA”.

B4: NPR6: development-associated NPR1 paralog AtNPR6 (AT3G57130) (protein, UniProt Q9M1I7 1-467, looked up)
Regulatory protein NPR6: MSNTFEESLKSMSLDYLNLLINGQAFSDVTFSVEGRLVHAHRCILAARSLFFRKFFCESDPSQPGAEPANQTGSGARAAAVGGVIPVNSVGYEVFLLLLQFLYSGQVSIVPHKHEPRSNCGDRGCWHTHCTAAVDLSLDILAAARYFGVEQLALLTQKHLTSMVEKASIEDVMKVLIASRKQDMHQLWTTCSYLIAKSGLPQEILAKHLPIELVAKIEELRLKSSMPLRSLMPHHHDLTSTLDLEDQKIRRMRRALDSSDVELVKLMVMGEGLNLDESLALIYAVENCSREVVKALLELGAADVNYPAGPTGKTALHIAAEMVSPDMVAVLLDHHADPNVQTVDGITPLDILRTLTSDFLFKGAIPGLTHIEPNKLRLCLELVQSAALVISREEGNNNSNDNNTMIYPRMKDEHTSGSSLDSRLVYLNLGATNRDIGDDNSNQREGMNLHHHHHDPSTMYHHHHHHF
As for B4, the “condensate formation in the absence of SA (constitutive)” value in assay [1] (no SA treatment / mock) is reported as “constitutive bodies”.

B5: NPR4: Arabidopsis NPR1 paralog AtNPR4 (AT4G19660) (protein, UniProt Q5ICL9 1-574, looked up)
Regulatory protein NPR4: MAATAIEPSSSISFTSSHLSNPSPVVTTYHSAANLEELSSNLEQLLTNPDCDYTDAEIIIEEEANPVSVHRCVLAARSKFFLDLFKKDKDSSEKKPKYQMKDLLPYGNVGREAFLHFLSYIYTGRLKPFPIEVSTCVDSVCAHDSCKPAIDFAVELMYASFVFQIPDLVSSFQRKLRNYVEKSLVENVLPILLVAFHCDLTQLLDQCIERVARSDLDRFCIEKELPLEVLEKIKQLRVKSVNIPEVEDKSIERTGKVLKALDSDDVELVKLLLTESDITLDQANGLHYAVAYSDPKVVTQVLDLDMADVNFRNSRGYTVLHIAAMRREPTIIIPLIQKGANASDFTFDGRSAVNICRRLTRPKDYHTKTSRKEPSKYRLCIDILEREIRRNPLVSGDTPTCSHSMPEDLQMRLLYLEKRVGLAQLFFPAEANVAMDVANVEGTSECTGLLTPPPSNDTTENLGKVDLNETPYVQTKRMLTRMKALMKTVETGRRYFPSCYEVLDKYMDQYMDEEIPDMSYPEKGTVKERRQKRMRYNELKNDVKKAYSKDKVARSCLSSSSPASSLREALENPT
As for B5, the “SA-induced cytoplasmic body/condensate” value in assay [1] is given as “fail to form cytoplasmic condensates”.

B6: CTD: C-terminal domain (CTD) of NPR1 (protein)
chain: ALMIAKQATMAVECNNIPEQCKHSLKGRLCVEILEQEDKREQIPRDVPPSFAVAADELKMTLLDLENRVALAQRLFPTEAQAAMEIAEMKGTCEFIVTSLEPDRLTGTKRTSPGVKIAPFRILEEHQSRLKALSKTVELGKRFFPRCSAVLDQIMNCEDLTQLACGEDDTAEKRLQKKQRYMEIQETLKKAFSEDNLELGNSSLTDSTSSTSKSTGGKRSNRKLSHRRR
modifications: left off: large carriers
notes: C-terminal domain (CTD) of NPR1
Take B6: the “competition with CUL3 for interaction with BTB” value in the assay on CUL3 (Myc-CUL3, BTB-HA and CTD-GFP co-expressed) is listed as “outcompeted CUL3 for interaction with BTB”.

B7: nls: NPR1 point mutant with enhanced cytoplasmic localization, blocking nuclear function (protein)
chain: MDTTIDGFADSYEISSTSFVATDNTDSSIVYLAAEQVLTGPDVSALQLLSNSFESVFDSPDDFYSDAKLVLSDGREVSFHRCVLSARSSFFKSALAAAKKEKDSNNTAAVKLELKEIAKDYEVGFDSVVTVLAYVYSSRVRPPPKGVSECADENCCHVACRPAVDFMLEVLYLAFIFKIPELITLYQRHLLDVVDKVVIEDTLVILKLANICGKACMKLLDRCKEIIVKSNVDMVSLEKSLPEELVKEIIDRRKELGLEVPKVKKHVSNVHKALDSDDIELVKLLLKEDHTNLDDACALHFAVAYCNVKTATDLLKLDLADVNHRNPRGYTVLHVAAMRKEPQLILSLLEKGASASEATLEGRTALMIAKQATMAVECNNIPEQCKHSLKGRLCVEILEQEDKREQIPRDVPPSFAVAADELKMTLLDLENRVALAQRLFPTEAQAAMEIAEMKGTCEFIVTSLEPDRLTGTKRTSPGVKIAPFRILEEHQSRLKALSKTVELGKRFFPRCSAVLDQIMNCEDLTQLACGEDDTAEKRLQQQQGYMEIQETLQQAFSEDNLELGNSSLTDSTSSTSKSTGGKRSNRKLSHRRR
modifications: left off: small tags and cut ends
B7: in the assay with CUL3 (1 mM SA for 5 hr), the “CUL3 pull-down signal in co-IP” value was “significantly stronger CUL3 pull-down signals”.

For the origin of these results see patent US20230227838A1, “ENHANCED CELL SURVIVAL AGAINST BIOTIC AND ABIOTIC STRESSES THROUGH SALICYLICK ACID-INDUCED NPR1 CONDENSATES” (priority 2020, published 2023).
